Assay results from US6413943 (CELL GENESYS, dated 2002).

Tests used:
Assay in all cases: cell-based or functional assay
CDK2/cyclin A complex = CDK2/cyclin A complex (UniProt P24941 1-298)
CDK2/cyclin E complex = CDK2/cyclin E complex (UniProt P24941 1-298)
CDK4/cyclin D1 complex = CDK4/cyclin D1 complex (UniProt P11802 1-303; P24385 1-295)
CDC2/cyclin B complex = CDC2/cyclin B complex (UniProt P06493 1-297)
CDC2/cyclin B complex, sequence (P06493 whole entry, one chain of several): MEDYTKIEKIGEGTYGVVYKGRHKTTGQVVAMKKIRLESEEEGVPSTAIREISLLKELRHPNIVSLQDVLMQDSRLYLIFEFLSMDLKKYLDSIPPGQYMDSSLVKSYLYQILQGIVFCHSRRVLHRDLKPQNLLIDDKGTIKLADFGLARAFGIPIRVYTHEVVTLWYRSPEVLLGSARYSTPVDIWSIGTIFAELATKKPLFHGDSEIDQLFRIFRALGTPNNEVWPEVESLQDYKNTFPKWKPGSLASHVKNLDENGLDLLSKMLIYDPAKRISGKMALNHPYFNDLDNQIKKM

CDK4/cyclin D1 complex, sequence (P11802 whole entry, chain 1 of 2): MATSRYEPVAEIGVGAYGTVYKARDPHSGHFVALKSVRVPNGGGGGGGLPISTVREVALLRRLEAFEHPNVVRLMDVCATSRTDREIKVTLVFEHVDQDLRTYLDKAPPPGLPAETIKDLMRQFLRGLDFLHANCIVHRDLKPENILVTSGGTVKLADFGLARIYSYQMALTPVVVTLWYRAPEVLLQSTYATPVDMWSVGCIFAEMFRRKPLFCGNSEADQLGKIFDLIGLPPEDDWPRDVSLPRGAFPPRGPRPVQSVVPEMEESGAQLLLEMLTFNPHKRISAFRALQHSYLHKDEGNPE
CDK4/cyclin D1 complex, sequence (P24385 whole entry, chain 2 of 2): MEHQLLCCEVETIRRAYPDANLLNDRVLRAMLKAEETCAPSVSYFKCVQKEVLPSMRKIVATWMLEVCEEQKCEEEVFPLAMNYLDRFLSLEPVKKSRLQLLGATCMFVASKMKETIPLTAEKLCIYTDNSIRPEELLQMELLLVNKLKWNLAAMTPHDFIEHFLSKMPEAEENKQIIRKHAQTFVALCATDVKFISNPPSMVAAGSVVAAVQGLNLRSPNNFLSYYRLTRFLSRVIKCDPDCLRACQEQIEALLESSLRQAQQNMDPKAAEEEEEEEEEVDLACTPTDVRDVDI

B1: human p16 (other)
chain: MEPAAGSSMEPSADWLATAAARGRVEEVRALLEAGALPNAPNSYGRRPIQVMMMGSARVAELLLLHGAEPNCADPATLTRPVHDAAREGFLDTLVVLHRAGARLDVRDAWGRLPVDLAEELGHRDVARYLRAAAGGTRGSNHARIDAAEGPSDIPD
IC50, in vitro kinase activity (CDK2/cyclin A complex): > 500 nM | IC50, in vitro kinase activity (GST-Rb phosphorylation) (CDK2/cyclin E complex): > 500 nM | IC50, in vitro kinase activity (GST-Rb phosphorylation) (CDK4/cyclin D1 complex): 250 nM | IC50, in vitro kinase activity (histone H1 phosphorylation) (CDC2/cyclin B complex): > 500 nM
